The values that follow come from patent publication US8889621B2, “Inhibiting binding of FGF23 to the binary FGFR-Klotho complex for the treatment of hypophosphatemia” (New York University, priority 2009, dated 2014).

For the test, the target named is T1, FGFR1c-Klotho complex (UniProt O35082+P11362).
T1 construct: The ectodomain of murine Klotho (A35 to K982) was purified from culture media; FLAG (C); made in house; host or cells: E. coli (FGFR1c); HEK293 conditioned media (Klotho ectodomain)
T1 sequence (P11362 142-365): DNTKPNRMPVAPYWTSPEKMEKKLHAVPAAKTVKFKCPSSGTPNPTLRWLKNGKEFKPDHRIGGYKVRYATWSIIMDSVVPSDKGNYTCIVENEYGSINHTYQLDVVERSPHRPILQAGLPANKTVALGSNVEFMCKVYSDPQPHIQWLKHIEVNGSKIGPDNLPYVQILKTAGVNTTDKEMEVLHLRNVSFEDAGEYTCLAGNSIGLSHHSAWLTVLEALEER
T1 sequence (O35082 35-982): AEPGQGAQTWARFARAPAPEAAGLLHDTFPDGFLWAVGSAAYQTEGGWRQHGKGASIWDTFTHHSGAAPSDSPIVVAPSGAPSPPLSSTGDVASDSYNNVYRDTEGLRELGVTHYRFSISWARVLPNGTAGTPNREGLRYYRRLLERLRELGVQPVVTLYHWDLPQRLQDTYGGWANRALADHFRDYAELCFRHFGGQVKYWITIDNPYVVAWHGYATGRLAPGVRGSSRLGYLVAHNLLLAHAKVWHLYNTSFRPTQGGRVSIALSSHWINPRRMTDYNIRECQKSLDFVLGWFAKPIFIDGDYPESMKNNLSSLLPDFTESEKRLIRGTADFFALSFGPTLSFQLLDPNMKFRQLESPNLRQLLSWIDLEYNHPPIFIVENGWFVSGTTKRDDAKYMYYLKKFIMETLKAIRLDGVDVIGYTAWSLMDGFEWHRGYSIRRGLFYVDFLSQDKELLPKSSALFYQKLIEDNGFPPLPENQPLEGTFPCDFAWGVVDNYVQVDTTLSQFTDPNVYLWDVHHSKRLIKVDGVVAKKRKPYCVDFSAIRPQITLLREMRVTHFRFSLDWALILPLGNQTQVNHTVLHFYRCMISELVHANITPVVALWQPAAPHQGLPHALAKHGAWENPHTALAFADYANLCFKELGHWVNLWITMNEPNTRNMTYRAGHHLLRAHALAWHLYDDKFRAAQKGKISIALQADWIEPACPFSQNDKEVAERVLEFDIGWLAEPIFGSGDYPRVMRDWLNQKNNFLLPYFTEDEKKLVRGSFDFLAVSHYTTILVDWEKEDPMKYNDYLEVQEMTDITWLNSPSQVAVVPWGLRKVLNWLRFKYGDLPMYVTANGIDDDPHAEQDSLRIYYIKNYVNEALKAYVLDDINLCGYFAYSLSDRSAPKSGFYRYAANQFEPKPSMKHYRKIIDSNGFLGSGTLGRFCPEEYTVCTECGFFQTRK
Kind of test: Size-exclusion chromatography of ternary complex formation. The format is binding, human FGFR1c, murine Klotho. As to conditions: 1.0 M NaCl, pH7.5. As for the experimental part: Size-exclusion chromatography may also be used to determine that an agent specifically binds the binary FGFR-Klotho complex. One aspect of the present invention utilizes size-exclusion chromatography. The size-exclusion chromatography experiments were performed on a HiLoad™ 16/60 Superdex™ 200 prep grade column. Because of poor solubility of FGF23 proteins and FGFR1c ectodomain in low salt buffer, the experiments were carried out with 25 mM HEPES-NaOH buffer, pH7.5, containing 1.0 M NaCl. Sample injection volume was 0.3 to 1.0 ml, and the flow rate was 1.0 ml min^−1. Protein retention times were determined by absorbance at 280 nm. The column was calibrated with ferritin (440 kDa), immunoglobulin G (150 kDa), albumin (69.3 kDa), ovalbumin (44.3 kDa), and carbonic anhydrase (28.8 kDa). The void volume was determined using blue dextran 2,000. […]
Size-exclusion chromatography experiments were performed on a HiLoad™ 16/60 Superdex™ 200 prep grade column (GE Healthcare) mounted on an ÄKTApurifier (GE Healthcare). […] Protein retention times were determined by absorbance at 280 nm. […] The void volume was determined using blue dextran 2,000. […]
In general terms: SEC sorts molecules by how far they enter the pores of the column.

B1: FGF23^28-251: human FGF23 (A28 to I251), bioactive full-length ligand expressed in E. coli (protein, listed as Homo sapiens)
chain: ASPLLGSSWGGLIHLYTATARNSYHLQIHKNGHVDGAPHQTIYSALMIRSEDAGFVVITGVMSRRYLCMDFRGNIFGSHYFDPENCRFQHQTLENGYDVYHSPQYHFLVSLGRAKRAFLPGMNPPPYSQFLSRRNEIPLIHFNTPIPRRHTRSAEDDSERDPLNVLKPRARMTPAPASCSQELPSAEDNSPMASDPLGVVRGGRVNTHAGGTGPEGCRPFAKFI
With B1, the “co-elution with the FGFR1c-Klotho complex” value is reported as “co-eluted with the FGFR1c-Klotho complex”.
